Results: patent US20260035426

Biological target: SB1902-C2
Sequence (chain, as listed by the source, chain 1 of 2): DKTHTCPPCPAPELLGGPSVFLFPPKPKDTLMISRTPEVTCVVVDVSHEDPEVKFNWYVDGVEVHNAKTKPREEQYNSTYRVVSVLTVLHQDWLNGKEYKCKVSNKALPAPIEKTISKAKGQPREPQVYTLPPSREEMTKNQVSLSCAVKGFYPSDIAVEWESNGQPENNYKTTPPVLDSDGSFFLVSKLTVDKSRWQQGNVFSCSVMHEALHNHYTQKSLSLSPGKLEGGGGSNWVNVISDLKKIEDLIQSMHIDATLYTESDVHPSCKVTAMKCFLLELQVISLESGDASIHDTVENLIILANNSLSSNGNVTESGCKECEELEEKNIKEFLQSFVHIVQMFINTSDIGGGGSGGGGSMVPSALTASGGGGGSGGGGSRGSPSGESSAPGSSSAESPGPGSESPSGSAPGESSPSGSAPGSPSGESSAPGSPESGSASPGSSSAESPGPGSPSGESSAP
Sequence (chain, as listed by the source, chain 2 of 2): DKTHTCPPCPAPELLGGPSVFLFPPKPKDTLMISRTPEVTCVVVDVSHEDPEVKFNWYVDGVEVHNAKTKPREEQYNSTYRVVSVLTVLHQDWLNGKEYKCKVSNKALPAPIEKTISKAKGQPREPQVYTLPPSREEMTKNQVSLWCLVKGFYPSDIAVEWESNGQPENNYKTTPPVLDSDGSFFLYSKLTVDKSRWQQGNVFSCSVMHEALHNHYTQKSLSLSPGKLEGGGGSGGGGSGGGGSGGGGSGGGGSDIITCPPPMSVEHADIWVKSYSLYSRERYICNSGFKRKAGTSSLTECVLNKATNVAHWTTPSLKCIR

B1: recombinant human MMP2 (protein)
chain: YNFFPRKPKWDKNQITYRIIGYTPDLDPETVDDAFARAFQVWSDVTPLRFSRIHDGEADIMINFGRWEHGDGYPFDGKDGLLAHAFAPGTGVGGDSHFDDDELWTLGEGQVVRVKYGNADGEYCKFPFLFNGKEYNSCTDTGRSDGFLWCSTTYNFEKDGKYGFCPHEALFTMGGNAEGQPCKFPFRFQGTSYDSCTTEGRTDGYRWCGTTEDYDRDKKYGFCPETAMSTVGGNSEGAPCVFPFTFLGNKYESCTSAGRSDGKMWCATTANYDDDRKWGFCPDQGYSLFLVAAHEFGHAMGLEHSQDPGALMAPIYTYTKNFRLSQDDIKGIQELYGASPDIDLGTGPTPTLGPVTPEICKQDIVFDGIAQIRGEIFFFKDRFIWRTVTPRDKPMGPLLVATFWPELPEKIDAVYEAPQEEKAVFFAGNEYWIYSASTLERGYPKPLTSLGLPPDVQRVDAAFNWSKNKKTYIFAGDKFWRYNEVKKKMDPGFPKLIADAWNAIPDNLDAVVDLQGGGHSYFFKGAYYLKLENQSLKSVKFGSIKSDWLGC
B1 was tested, and the “digestion efficiency by SDS-PAGE” value was “about 90% of the prodrug SB1902-C2 was digested”.
